The source of these data is article PMC5737377, “Structural insights into RapZ-mediated regulation of bacterial amino-sugar metabolism” (Nucleic Acids Research, 2017).

Series [1] deals with RapZ full length (Strep-tag cleaved) (Escherichia coli). Put plainly: BLI. The following applies: 1 mM Mg2+; Kd values only in figure; incomplete dissociation; 5' biotin; BLI: 25 mM Tris pH 7.5, 50 mM NaCl, 50 mM KCl, 1 mM MgCl2, 1 mM DTT, temperature not stated; EMSA (GlmY): 10 mM Tris pH 7.0, 100 mM KCl, 10 mM MgCl2, 1 ug …. A general note: In EMSA bound probe runs differently from free probe, usually more slowly.

The test system of series [2] is RapZ-CTD (Strep-tag cleaved) (Escherichia coli). Description: BLI. The conditions noted are these: 1 mM Mg2+; Kd values only in figure; incomplete dissociation; 5' biotin; BLI: 25 mM Tris pH 7.5, 50 mM NaCl, 50 mM KCl, 1 mM MgCl2, 1 mM DTT, temperature not stated; EMSA (GlmY): 10 mM Tris pH 7.0, 100 mM KCl, 10 mM MgCl2, 1 ug …; scale: fold higher affinity than full-length RapZ.

Series [3] deals with the molecule itself. Put plainly: SEC-MALS; full-length RapZ alone, 30 μM on Superdex 200 10/300 GL, 25°C.
Series [4] deals with the molecule itself. Put plainly: SEC-MALS + AUC; RapZ-CTD alone. SEC-MALS: 30 μM on Superdex 200 10/300 GL, 25 mM Tris pH 7.5, 200 mM KCl, 1 mM TCEP, 25°C. Sedimentation velocity AUC: 0.5–1 mg/ml, 20°C, 50 000 rpm. (In general: SEC sorts molecules by how far they enter the pores of the column.)

Usually stoichiometry N stands for a count of units in the complex or per binding partner.

In series [1], GlmY processed (BLI) yielded a relative binding affinity (relative Kd-type affinity (reference)) of 1. This molecule also came in with a relative binding affinity in series [2] of 2.

In series [1], GlmZ full length (BLI) gave a relative binding affinity (relative Kd-type affinity (reference)) of 1. The molecule also had a relative binding affinity in series [2] of 2.

Turning to GlmZ processed (BLI), the relative binding affinity (relative Kd-type affinity (reference)) in series [1] was 1. The same molecule yielded a relative binding affinity in series [2] of 2.

B1: full length Escherichia coli RapZ (natural protein, UniProt P0A894 1-284, looked up)
chain: MVLMIVSGRSGSGKSVALRALEDMGFYCVDNLPVVLLPDLARTLADREISAAVSIDVRNMPESPEIFEQAMSNLPDAFSPQLLFLDADRNTLIRRYSDTRRLHPLSSKNLSLESAIDKESDLLEPLRSRADLIVDTSEMSVHELAEMLRTRLLGKRERELTMVFESFGFKHGIPIDADYVFDVRFLPNPHWDPKLRPMTGLDKPVAAFLDRHTEVHNFIYQTRSYLELWLPMLETNNRSYLTVAIGCTGGKHRSVYIAEQLADYFRSRGKNVQSRHRTLEKRKP
notes: RapZ (formerly YhbJ), Escherichia coli, full length, residues 1-284; also called YhbJ; full-length RapZ (1–284); source: E. coli Rosetta, purified (Strep Trap, heparin, gel filtration)
For B1, in series [3], the “stoichiometry N” value is 4.

B2: RapZ-CTD (154–284) (domain or fragment, Escherichia coli, UniProt P0A894 154-284, looked up)
chain: GKRERELTMVFESFGFKHGIPIDADYVFDVRFLPNPHWDPKLRPMTGLDKPVAAFLDRHTEVHNFIYQTRSYLELWLPMLETNNRSYLTVAIGCTGGKHRSVYIAEQLADYFRSRGKNVQSRHRTLEKRKP
notes: RapZ, Escherichia coli, C-terminal domain, residues 154-284; also called C-terminal domain of RapZ; source: E. coli Rosetta, purified (Strep Trap, MonoS, gel filtration)
As to B2, in series [4], the “stoichiometry N” value came to 2.
